Assay [1] concerns the target recombinant human FGFR2/Fc chimera (Sino Biological 10824-H03H) (human, UniProt P21802 22-377). As to the kind of experiment: SPR. (In general: In SPR one partner is held on a chip, and binding of the other changes the refractive index at the surface.)
Assay [2] concerns the target T1, recombinant human FGFR1/Fc chimera (Sino Biological 10616-H03H) (human, UniProt P11362 22-376).
T1 chain: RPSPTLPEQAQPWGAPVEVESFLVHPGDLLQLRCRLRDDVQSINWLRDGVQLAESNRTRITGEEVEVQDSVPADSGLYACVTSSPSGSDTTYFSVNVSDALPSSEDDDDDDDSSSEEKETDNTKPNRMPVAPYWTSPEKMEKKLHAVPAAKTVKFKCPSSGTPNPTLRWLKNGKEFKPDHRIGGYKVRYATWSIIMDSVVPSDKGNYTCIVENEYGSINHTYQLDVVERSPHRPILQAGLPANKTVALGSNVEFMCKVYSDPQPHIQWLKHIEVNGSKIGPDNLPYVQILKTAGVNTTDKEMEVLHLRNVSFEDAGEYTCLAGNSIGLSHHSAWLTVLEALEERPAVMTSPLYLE
The experiment in a line: SPR.

recombinant human FGFR2/Fc chimera (Sino Biological 10824-H03H), sequence (P21802 22-377): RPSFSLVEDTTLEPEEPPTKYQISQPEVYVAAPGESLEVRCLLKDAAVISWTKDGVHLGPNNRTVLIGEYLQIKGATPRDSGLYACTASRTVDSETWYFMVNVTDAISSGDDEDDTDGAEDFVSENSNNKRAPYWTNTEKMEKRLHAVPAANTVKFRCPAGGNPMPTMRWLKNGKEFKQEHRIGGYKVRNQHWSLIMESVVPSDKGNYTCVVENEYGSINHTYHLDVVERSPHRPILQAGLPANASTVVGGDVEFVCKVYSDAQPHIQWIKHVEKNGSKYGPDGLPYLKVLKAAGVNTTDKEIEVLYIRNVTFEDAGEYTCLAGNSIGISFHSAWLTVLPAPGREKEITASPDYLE

B1: recombinant FGF8a (R&D Systems 4745-F8-050) (ligand)
chain: QHVREQSLVTDQLSRRLIRTYQLYSRTSGKHVQVLANKRINAMAEDGDPFAKLIVETDTFGSRVRVRGAETGLYICMNKKGKLIAKSNGKGKDCVFTEIVLENNYTALQNAKYEGWYMAFTRKGRPRKGSKTRQHQREVHFMKRLPRGHHTTEQSLRFEFLNYPPFTRSLRGSQRTWAPEPR
Broadly, the Kd is the equilibrium constant for the complex coming apart. Regarding B1, the Kd in assay [1] was found to be 31.5 nM; in assay [2], 39.2 nM.

B2: recombinant FGF4 (Peprotech AF-100-31) (ligand)
chain: APTAPNGTLEAELERRWESLVALSLARLPVAAQPKEAAVQSGAGDYLLGIKRLRRLYCNVGIGFHLQALPDGRIGGAHADTRDSLLELSPVERGVVSIFGVASRFFVAMSSKGKLYGSPFFTDECTFKEILLPNNYNAYESYKYPGMFIALSKNGKTKKGNRVSPTMKVTHFLPRL
For the molecule B2, the dissociation constant (Kd) turned out to be 6.94 nM in assay [1] and 3.61 nM in assay [2].
